# From the RNAGym collection of RNA variant scans (doi:10.1073/pnas.2313332121)
# B1: TPR t1 (parent)
# chain: GACCAAUCUGCCCUCAGAGCUCGAGAACAUCUUCGGAUGCAGAGGAGGCAGGCUUCGGUGGCGCGAUAGCGCCAACGUCCUCAACCUCCAAUGCAUCCCACCACAUGAUGAUGCCUGAAGAGCCUUGGUUUUUUG
# Variants of: B1
# Assay: polymerase ribozyme fitness, log enrichment relative to wild type (log ratio); higher = more active; in vitro selection for triplet polymerase activity
# Method in brief: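 Each subunit of a heterodimeric triplet polymerase ribozyme was represented by a PCR-built, transcribed mutant library that underwent triplicate single-round in vitro selection with frozen incubation at −7 °C. Extended constructs were recovered by gel excision, streptavidin-bead capture and RT-PCR, and Illumina sequencing of input and output libraries kept genotypes with ≥10 input reads and ≥1 read per output. Fitness is the logarithm of genotype enrichment relative to wild-type enrichment, from inverse-variance-weighted replicate averages, with a logarithm base of 2.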
row,Variant,polymerase ribozyme fitness (log ratio)
1,G60U A111U,-2.87
2,G60U A111G,0.488
3,G60C A100U C114A,-3.1
4,G60A C114G,-2.53
5,G58C U112C A121G,1.44
6,G60A C98U,-0.842
7,G58U C86U G110U G122A,-3.85
8,G60C C94U C124U,1.26
9,G60A C89A C115U,-2.92
10,U59A U96A,-1.66
11,G60A U87G C101U,0.254
12,U59A C70A C102A,-5.39
13,G58C C86A C115U,-2.72
14,U59C C72G A118C,-3.55
15,G60U C70A,-3.78
16,G60U A103U,-4.99
17,G60A A84U C115A U131G,-0.704
18,U59A C80U,-0.689
19,G60A G127A,-0.964
20,U59A C79U G110A A119C,-3.05
21,G58C G113U,-2.87

row,Variant,polymerase ribozyme fitness (log ratio)
1,G60C G128A,-2.48
2,G60A A95G C104A U132C,-2.06
3,G58C U109A C114U,-5.23
4,G58A U96A,-0.747
5,G60A G93A G120A,-0.129
6,G60C G117C,-4.28
7,G60C G117U,-3.4
8,G60A C114G U132G,-4.75
9,U59A A111C G120A,-0.645
10,U59C C79A G122A C123A U132A,-2.39
11,G58A C99U G122A,-5.04
12,U59G U81A,-0.876
13,U59C C62U C85A C115U,-2.93
14,G60A A83C C101G G128C,-4.75
15,G58C U59G C70A C86G,-2.75
16,G58C A111G G120A,-1.36
17,G60C G69U C80U,-5.8
18,G60C G110A,-1
19,G58A G61A C73A U92A,-5.1
20,G58U G60C G117U C123A,-2.45
21,G60U C62U,-0.758

row,Variant,polymerase ribozyme fitness (log ratio)
1,G60A G69U A121C G122U,-0.0689
2,U59C C97U C114G,-4.47
3,G60A C80G,-4.53
4,G60A C80A,-3.69
5,G60C A121U,1.85
6,G60A C97A,-4.41
7,G60A C97G,-4.02
8,U59G C72U U106G U112A G128C,-4.15
9,G60A G110A,-1.52
10,G58C G61A U92C,-1.98
11,G60C A105U,-3.07
12,U59G C85U U87A U106A,-0.914
13,G58A G60A C99U U130A,-5.34
14,U59G G113U U126A,-3.87
15,G60C A66U G113A U126C,-4.03
16,G58U G63A C94U,-0.678
17,G60C C86A C97G U116C,-4.3
18,G60U A121C,1.48
19,G58U A75U C79A C89A G120C C123U,-4.72
20,U59G U78A,0.3
21,G58A C102U C114A,-4.78

row,Variant,polymerase ribozyme fitness (log ratio)
1,G60A U112A G113C,-1.56
2,U59C G93U,-1.12
3,G60A C82G C86A U87G,-1.52
4,U59C C72U,-0.715
5,U59G C82A G110A,-0.532
6,G60A G107A,-2.9
7,G60A G107U,-4.12
8,G60A C73G A108U,-5.92
9,G60C A84C C86U,-1.01
10,G60A C97U G120C,0.712
11,U59A C82U A111G,-0.386
12,G60C A68G,-4.8
13,G60A A95U,-0.238
14,G60A A95G,-0.00276
15,G58A G69A C88G A121U,-2.86
16,G60A C97G G120C,-4.18
17,U59A C72U A83C,-0.884
18,G60A C72G C101U,-1.15
19,G60A G63C G110A G135C,-6.16
20,U59C G69U U81A,-1.48
